Laboratory results published in US20040166544A1 (published 2004).
Several values for one entry are separate records, joined by “and”; a condition that tells them apart may be missing. Identical values can stand only once.

Key:
[1] = molecular target: T1, c-Met/Fc Chimera (R&D Systems, catalog # 358-MT-100) (human, UniProt P08581 25-932); assay: competition ELISA: displacement of biotinylated HGF from plate-coated c-Met/Fc chimera, Fab, n = 2
T1 construct: extracellular domain; Bought reagent; also called human c-Met-Fc fusion protein; recombinant c-Met protein; Fc part of the bought chimera not given
Protocol: (§1) 96-well Fluoronunc plates were coated with 50 ul of 0.5 ug/ml c-Met/Fc Chimera (R&D Systems, Minneapolis Minn., catalog # 358-MT-100) in phosphate buffered saline (PBS) and the plates were incubated overnight at room temperature. Wells were washed three times with washing buffer (PBS+0.1% Tween 20), blotting the plates on paper towels between each wash. Nonspecific binding in the wells was blocked by the addition of 250 ul of blocking buffer (3.0% milk (Carnation) in PBS) to each well and incubated at room temperature for two hours.
(§2) The c-Met antibodies were diluted in reagent buffer (PBS, 0.5% BSA, 0.05% Tween-20) and titrations were performed in 96 well polypropylene plates. Biotinylated HGF (0.4 ug/ml) (R&D Systems, biotinylated with Pierce #21335 as per manufacturer's instructions) was added to each well. 50 ul of the dilutions were transferred into the Fluoronunc plates containing human c-Met-Fc fusion protein (R&D Systems, #) and the plates were incubated for two hours at room temperature. The plates were washed three times with wash buffer and blotted onto paper towels. 50 ul of europium-labeled Streptavidin (Wallac Perkin Elmer) diluted 1:1000 in Delfia assay buffer (Wallac Perkin Elmer) was added per well and the plates were incubated for one hour at room temperature. The plates were washed seven times with Delfia wash buffer (Tris buffered saline (TBS) supplemented with 0.1% Tween-20) and blotted onto paper towels. 100 ul Delfia enhancer solution (Wallac Perkin Elmer) was added to each well and the plates incubated for 5 minutes on a plate shaker at room temperature. Plates were read on a fluorescence plate reader and analyzed using GraphPad Prism software (GraphPad Software, San Diego, Calif.).
(§3) C-Met antibodies 1A3.3.13 (#HB-11894, ATCC Hybridoma) and 5D5.11.6 (#HB-11895, ATCC Hybridoma) were used as positive controls. MOPC-21 (#M-7894, Sigma) was used as an IgG isotype control and HB-94 (#HB-94, ATCC Hybridoma) was converted into a Fab fragment and used as a Fab isotype control. NK4-Elastase is a kringle to kringle 4 fragment resulting from digesting intact HGF purified from S-114 cells with elastase (Date et al., FEBS Lett. 420:1-6 ([…]).

[2] = molecular target: T2, biotinylated c-Met-Fc (R&D Systems, #358-MT-100/CF, 5.1 biotin per c-Met molecule) (human, UniProt P08581 25-932, biotinylated, 5.1 biotin per c-Met molecule (Pierce #21335)); assay: SPR (BIAcore), biotinylated c-Met-Fc captured on streptavidin chip, IgG as analyte, bivalent model
T2 construct: extracellular domain; Captured on a streptavidin (SA) chip for the BIAcore study of the IgGs; Fc part of the bought chimera not given
Protocol: The binding properties (on-rate, off-rate and affinity) of c-Met monoclonal antibodies (IgG or Fab versions) with human c-Met extracellular domain was determined using surface plasmon resonance, or BLAcore, technology. For the binding studies with IgG, a low density (<1 ng/mm2) of c-Met-Fc (R&D Systems, #358-MT-100/CF) containing 5.1 biotin per c-Met molecule (prepared with Pierce #21335 as per manufacturer's instructions) was captured onto a SA chip precoated with Streptavidin (BIAcore Inc.). A streptavidin flow cell without adsorbed c-Met-Fc was used as a control cell for non-specificbinding. The antibody sample to be analyzed was prepared in HEPES buffer (0.15M NaCl, 10 mM HEPES, 3.4 mM EDTA, 0.005% surfactant P-20, pH 7.4) to form a set of solutions varied in concentration from 0.78 nM to 100 nM. The HEPES buffer used as the running solution was set at a flow rate of 50 ul/min. Each sample solution was injected over the two flow cells for three minutes, followed by 5 minutes of dissociation. The flow cells were then regenerated with 4.5M MgCl₂ for one minute to remove the bound antibody for the next cycle of binding study. The net sensorgrams (subtraction of sensorgrams from the negative control flow cell as well as that from the buffer blank) obtained for each set of samples were processed simultaneously in a global fitting using a bivalent binding model of the BIAevaluation software program equipped with the system. The on-rate (Kₐ), off-rate (Kd) and binding affinity (KD) were determined from the fitting with KD equal to kd/kₐ.

[3] = molecular target: T1, c-Met/Fc Chimera (R&D Systems, catalog …); assay: competition ELISA: displacement of biotinylated HGF from plate-coated c-Met/Fc chimera, IgG, n = 2
Protocol: as §1, §2, §3

[4] = molecular target: T1, c-Met/Fc Chimera (R&D Systems, catalog …); assay: SPR (BIAcore), c-Met-Fc captured on protein A CM5 chip, Fab as analyte, 1:1 Langmuir model
Protocol: For the binding study of Fab fragments derived from antibodies of the invention, a high density (>2 ng/mm²) of protein A was first immobilized covalently onto a CM5 sensorchip using EDC/NHS amine coupling chemistry [. The flow cell containing c-Met-Fc captured by the protein A was used as the positive control while a flow cell containing only protein A was used as the negative control. The Fab sample to be analyzed was as above for antibodies to form a set of solutions with concentration ranged from 3.9 nM to 500 nM. The HEPES buffer used as the running solution was set at a flow rate of 50 ul/min. For each cycle of binding study, low density (<1 ng/mm²) of c-Met-Fc was captured first onto the positive flow cell. Each sample solution was then injected over the two flow cells (one negative and one positive in series) for three minutes followed by 5 minutes of dissociation. The flow cells were then regenerated with 4.5M MgCl₂ for one minute to remove the bound c-Met-Fc/Fab complexes for the next cycle of binding. The net sensorgrams (subtraction of sensorgrams from the negative control flow cell as well as that from the buffer blank) obtained from the set of samples were fitted simultaneously in a global fitting using a Langmuir 1:1 binding model of the BIAevaluation program equipped with the system. The on-rate (Kₐ), off-rate (Kd) and binding affinity (KD) were determined from the fitting with KD equal to kd/kₐ.

[5] = molecular target: c-Met (endogenous, on human cell lines 184B5, HCT-116, DU-145 and NCI H441) (human, UniProt P08581 25-1390); assay: cell-based or functional assay

B1: c-Met 12075 Fab (Fab, V domains shown)
VH: QVQLVQSGPEVKKPGASVEVSCKASGYTFTGDYMHWVRQAPGQGPEWMGWINPQTGVTKYAQKFQGRVTMARDTSINTAYMELRGLRSDDTAVYYCVREDHNYDLWSAYNGLDVWGQGTLVTVSS
VL: QSVLTQPPSVSAAPGQKVTISCSGSSSNIGNNHVSWYQQLAGTAPKLLIFDNDKRPSGIPDRFSGSKSGTSATLGITGLQTGDEADYYCGTWDKSPTDIYVFGSGTKLTVLG
notes: VH and VL limits counted as for the IgG; also called Fab fragment derived from c-Met antibody 12075
IC50 [1]: > 125 nM

B2: c-Met IgG antibody 12136 (antibody, V domains shown)
VH: QVQLQESGPGLVKPSETLSLTCNVSGGSIRNYFWSWIRQPPGQGLEYIGYIYYSGTTDYNPSLKGRVTISLDTSKTQFSLKLNSVTAADTAFYYCVRGPNKYAFDPWGQGTLVTVSS
VL: SYELTQPPSVSVSPGQTASITCSGDKLGDKFASWYQQKAGQSPVLVIYRDTKRPSGIPERFSGSNSGNTATLTISGTQAMDEADYYCQAWDSSTAVFGTGTKVTVLG
notes: IgG of scFv PGIA-4-A8; also called 12136 IgG; IgG of scFv PGIA-04-A8 (PGIA-4-A8)
Kd [2]: 0.8 nM
koff [2]: 0.000229 s⁻¹
kon [2]: 294000 M⁻¹ s⁻¹
IC50 [3]: 1 nM

B3: c-Met 12136 Fab (Fab, V domains shown)
VH: QVQLQESGPGLVKPSETLSLTCNVSGGSIRNYFWSWIRQPPGQGLEYIGYIYYSGTTDYNPSLKGRVTISLDTSKTQFSLKLNSVTAADTAFYYCVRGPNKYAFDPWGQGTLVTVSS
VL: SYELTQPPSVSVSPGQTASITCSGDKLGDKFASWYQQKAGQSPVLVIYRDTKRPSGIPERFSGSNSGNTATLTISGTQAMDEADYYCQAWDSSTAVFGTGTKVTVLG
notes: VH and VL limits counted as for the IgG; also called Fab fragment derived from c-Met antibody 12136
Kd [4]: 6 nM
koff [4]: 0.00101 s⁻¹
kon [4]: 168000 M⁻¹ s⁻¹

B4: c-Met 11978 Fab (Fab, V domains shown)
VH: not shown
VL: NFMLTQPHSVSESPGKTVTISCTRSSGSIAFDYVQWYQQRPGSAPTTVIYEDNQRPSGVPDRFSASIDSSSNSASLTISALKTEDEADYYCQSYDNSNSWVFGGGTKLTVLG
notes: VH and VL limits counted as for the IgG
IC50 [1]: 65.9 nM and > 125 nM

B5: c-Met IgG antibody 12123 (antibody, V domains shown)
VH: QVQLQESGPGLVKPSATLSLTCAVSGGSISSNHWWSWVRQSPGKGLEWIGEIYTYGGANYNPSLKSRVDISMDKSKNQFSLHLSSVTAADTAVYYCGRHLTGYDCFDIWGQGTLVTVSS
VL: QAVLTQPSSVSGAPGQRVTISCTGSSSNIGAGYDVHWYQQLPGTAPKLLIYGNSNRPSGVPDRFSGSKSGTSASLAITGLQAEDEADYYCQSYDSSLSGVFGTGTQLTVLS
notes: IgG of scFv PGIA-3-B2; The VL reverse cloning primer RH62 codes ...TVLG whereas the scFv entry ends ...TVLS; also called 12123 IgG; IgG of scFv PGIA-03-B2 (PGIA-3-B2)
scatter assay on DU-145 cells, mean object area, agonist (alone), 100 nM IgG; the smaller the number, the more scattering [5]: 234 mean object area
scatter assay on DU-145 cells, mean object area, antagonist (w/30 pM HGF), 100 nM IgG; the smaller the number, the more scattering [5]: 226 mean object area
Kd [2]: 9.7 nM
koff [2]: 0.00329 s⁻¹
kon [2]: 338000 M⁻¹ s⁻¹
IC50 [3]: 0.5 nM

B6: c-Met IgG antibody 11986 (antibody, V domains shown)
VH: EVQLVQSGAEVKKPGATLKVSCKVSAYTFTDYSMHWVQQAPGKGLKWMGLIDLEDGNTIYAEEFQDRVTITADTSTDTAYMDLSSLRSEDTAVFYCAISPLRGLTADVFDVWGQGTLVTVSS
VL: QSALTQPASASGSPGQSITISCTGTSSDIGRYDFVSWYQRQPGKAPKLMIYDVINRPSGVSSRFSGSKSGNTASLTISGLQAEDEADYYCSSYAGSTTLYVFGTGTKLTVLG
notes: IgG of scFv PGIA-3-B1; also called 11986 IgG; IgG of scFv PGIA-03-B1 (PGIA-3-B1)
IC50 [3]: 0.52 nM

B7: c-Met 11986 Fab (Fab, V domains shown)
VH: EVQLVQSGAEVKKPGATLKVSCKVSAYTFTDYSMHWVQQAPGKGLKWMGLIDLEDGNTIYAEEFQDRVTITADTSTDTAYMDLSSLRSEDTAVFYCAISPLRGLTADVFDVWGQGTLVTVSS
VL: QSALTQPASASGSPGQSITISCTGTSSDIGRYDFVSWYQRQPGKAPKLMIYDVINRPSGVSSRFSGSKSGNTASLTISGLQAEDEADYYCSSYAGSTTLYVFGTGTKLTVLG
notes: as for B4
IC50 [1]: 80 nM

B8: c-Met IgG antibody 12133 (antibody, V domains shown)
VH: QVQLQESGPGLVKPSGTLSLTCAVSGGSISTSDWWSWVRRPPGKGLEWIGEIYHSGSTNYHPSLKSRVTISLDKSKNQFSLKLSSVTAADTAVYYCAREGGHSGSYPLDYWGRGTLVTVSS
VL: NFMLTQPHSVSESPGKTATISCTGSGGSIARSYVQWYQQRPGRAPSIVIYEDYQRPSGVPDRFSGSIDSSSNSASLTITGLKTDDEADYYCQSSDDNNNVVFGGGTKVTVLG
notes: IgG of scFv PGIA-4-A5; also called 12133 IgG; IgG of scFv PGIA-04-A5 (PGIA-4-A5)
scatter assay on DU-145 cells, mean object area, agonist (alone), 100 nM IgG; the smaller the number, the more scattering [5]: 241 mean object area
scatter assay on DU-145 cells, mean object area, antagonist (w/30 pM HGF), 100 nM IgG; the smaller the number, the more scattering [5]: 230 mean object area
Kd [2]: 6 nM
koff [2]: 0.000598 s⁻¹
kon [2]: 98900 M⁻¹ s⁻¹
IC50 [3]: 0.58 nM

B9: c-Met 12133 Fab (Fab, V domains shown)
VH: QVQLQESGPGLVKPSGTLSLTCAVSGGSISTSDWWSWVRRPPGKGLEWIGEIYHSGSTNYHPSLKSRVTISLDKSKNQFSLKLSSVTAADTAVYYCAREGGHSGSYPLDYWGRGTLVTVSS
VL: NFMLTQPHSVSESPGKTATISCTGSGGSIARSYVQWYQQRPGRAPSIVIYEDYQRPSGVPDRFSGSIDSSSNSASLTITGLKTDDEADYYCQSSDDNNNVVFGGGTKVTVLG
notes: VH and VL limits counted as for the IgG; also called Fab fragment derived from c-Met antibody 12133
Kd [4]: 8.8 nM
koff [4]: 0.00245 s⁻¹
kon [4]: 280000 M⁻¹ s⁻¹

B10: c-Met 12119 Fab (Fab, V domains shown)
VH: QLQLQESGPGLVKPSGTLSLTCAVSGGSISTSDWWSWVRRPPGKGLEWIGEIYHSGSTNYHPSLKSRVTISLDKSKNQFSLKLSSVTAADTAVYYCAREGGHSGSYPLDYWGRGTLVTVSS
VL: NFMLTQPHSVSESPGKTVTISCARSSGSIASNYVQWYQQRPGSSPTTLIYEDRQRPSGVPDRFSGSIDSSSNSASLTISGLKTEDEADYYCQSYDSSDHVVFGGGTKLTVLG
notes: VH and VL limits counted as for the IgG; also called Fab fragment derived from c-Met antibody 12119
IC50 [1]: 10.7 nM
